The values that follow are results of earlier work, collected in PMC6472649.

Where two headings read alike, the source gives them in different places.

For data set [1], the target named is SFLLRN ligand (Homo sapiens). Briefly: FD-AFM.
Data set [2] addresses SFLLRN ligand (Homo sapiens). The data set is described as follows: FD-AFM. The source holds these as a separate data set.

As usually defined, the Kd is the concentration at which binding is half-saturated. As to PAR1 (from UniProt P25116), the dissociation constant (Kd) in data set [1] was 0.35 µM; in data set [2], 40 µM.
